Reference: patent US20190031751A1 (University of Texas, published 2019)
Values belong to the binder of their own block, whether it stands above or below them.

Target: T1, Human epidermal growth factor (EGF)-like domain multiple 6 (EGFL6) protein (human, UniProt Q8IUX8 22-553)
T1 construct: Secreted protein; also called human EGFL6; recombinant human EGFL6
T1 sequence (looked up): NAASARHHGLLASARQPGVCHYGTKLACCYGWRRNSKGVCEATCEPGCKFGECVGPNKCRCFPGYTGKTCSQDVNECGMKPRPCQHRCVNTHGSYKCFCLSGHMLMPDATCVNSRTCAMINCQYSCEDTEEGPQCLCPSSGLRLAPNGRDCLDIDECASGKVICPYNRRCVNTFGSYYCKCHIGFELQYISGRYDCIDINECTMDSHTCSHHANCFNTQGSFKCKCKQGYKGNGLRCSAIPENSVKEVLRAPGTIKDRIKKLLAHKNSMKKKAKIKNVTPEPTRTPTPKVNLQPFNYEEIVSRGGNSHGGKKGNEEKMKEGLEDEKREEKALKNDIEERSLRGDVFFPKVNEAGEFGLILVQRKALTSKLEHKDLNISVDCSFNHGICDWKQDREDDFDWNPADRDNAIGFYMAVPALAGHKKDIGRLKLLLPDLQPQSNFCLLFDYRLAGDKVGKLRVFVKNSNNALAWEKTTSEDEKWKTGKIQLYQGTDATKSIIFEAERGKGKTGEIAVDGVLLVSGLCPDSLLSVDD
Test: ELISA titration on coated EGFL6, 4-parameter curve fit
Experimental: Binding of EGFL6 by monoclonal antibodies was first screened by ELISA using supernatants collected from the B cell cultures (FIG. 2). ELISA titration was used to determine the binding affinity of a panel of monoclonal antibodies to EGFL6 antigen (FIG. 3). Binding constants (KD and/or EC 50) of a panel of monoclonal antibodies were estimated using the 4 parameter curve fitting with Prism GraphPad program. For Biacore analysis, all experiments were performed at 25° C. at a flow rate of 45 μl/min. An anti-human IgG Fc antibody (from ThermoFisher, at 50 μg/ml each in acetate buffer, pH 5.0) was immobilized onto a carboxymethyl dextran sensorchip (CMS) using amine coupling procedures based on instruction from the manufacturer. Purified rabbit/human chimeric antibody to be tested was diluted at a concentration of 5 μg/ml in 0.5% P20, HBS-EP buffer and injected on FC2 to reach 500 to 1000 RU. FC1 was used as the reference cell. Specific signals correspond to the difference of signals obtained on FC2 versus FC1. The analyte (recombinant human EGFL6, apparent molecular weight 60 kDa on SDS-PAGE gel) was injected during 90 sec at series of concentration dilutions (100, 50, 25, 12.5, 6.25, and 3.13, 1.56 nM) in 0.5% P20, HBS-EP buffer. These concentrations were prepared from stock solution in 0.5% P20, HBS-EP. The dissociation phase of the analyte was monitored over a 30 minutes period. Running buffer was also injected under the same conditions as a double reference. After each running cycle, both flow cells were regenerated by injecting 20 to 45 μl of Glycine-HCl buffer pH 1.5. Binding KD on EGFL6 was calculated by koff/kₒₙ kinetic rate for each EGFL6 monoclonal antibodies (Table 3).

EC50: 1.91 ng/mL
B1: E1-142 monoclonal antibody (antibody, V domains shown)
VH: QSLEESGGDLVKPGASLTLTCTASGFTINNYNINWVRQAPGKGLEWIARIWNGDGSTYYASWAKGRFTISKTSSTTVTLQMTSLTAADTATYFCARNFNLWGPGTLVTISS
VL: ELVLTQTPSPVSAAVGGTVTINCQSSASVYSNNYLSWFQQKPGQPPKPLIYYASTLASGVPSRFKGSGSGTQFTLTISDVQCDDAATYYCAGDYSSSSDMCIFGGGTELEIK
notes: Rabbit variable domains

EC50: 0.78 ng/mL
B2: E1-34 monoclonal antibody (antibody, V domains shown)
VH: EQSVKESGGGLVQPEGSLTLTCTASGFSFSSIYWICWVRQAPGKGLELIACIQITSGITYYASWAKGRFTISKMSSTTVTLQMTSLTVADTATYFCGRRGYGAYAGTGASDLWGPGTLVTVSS
VL: ELDLTQTASSVSAAVGGTVTINCQSSQSVYNNNNLAWYQQKPGQPPKLLIYEASKLASGVPSRFKGSGSGTQFTLTISGVQCDDAATYYCAGGYAGYIWAFGGGTEVVVK
notes: Rabbit variable domains

EC50: 0.44 ng/mL
B3: E2-135 monoclonal antibody (antibody, V domains shown)
VH: QSVKESEGDLVKPGASLTLTCKASGFDFSSSYFMCWVRQAPGRGLEWIACIYTVISRKTYYASWAKGRFTISKTSATTVDLQMTSLTAADTATYFCARSATIERLDLWGQGTLVTVSS
VL: ELDLTQTPSPVSAPVGGTVTINCQASESVYNNYRLSWYQQKPGQPPKLLIYAASTLASGVPSRFKGSGSGTQFTLAISDVVCDDAATYYCVGYKSGYIDSIPFGGGTEVVVK
notes: Rabbit variable domains; also called mAb135

EC50: 0.37 ng/mL
B4: E2-93 monoclonal antibody (antibody, V domains shown)
VH: QSVKESEGGLVQPEGSLTLTCKASGFSFSSYGVNWVRQAPGKGLEWIAYIGLSSEITYYAGWAKGRFTISKPSSTTVTLQMTSLTAADTATYFCVRDLYHSNGLWGPGTLVTISS
VL: ELDLTQTPSPVSAAVGGTVTVSCQASESVYNNNRLSWYQQKPGQPPKLLIYYASTLASGVPSRFSGSGSGTQFTLTISSVQCADAATYYCVAFKGYGTDGNAFGGGTEVEIK
notes: Rabbit variable domains; also called Mab #93; mAb93

EC50: 5.81 ng/mL
B5: E1-38 monoclonal antibody (antibody, V domains shown)
VH: EQSVKESGGDLVKPEGSLTLTCTASGFSFNSGYWVCWVRQAPGKGLEWIACIYTSSPTGAIYYATWAKGRFTISQTSSTTVTLQMTSLTAADTATYFCTRDNFGGGGSASKLWGPGTLVTISS
VL: ELVMTQTPSSKSVPVGGTVTIDCQASESVYSNNRCAWYQQKPGQPPKLLIYYASTLASGVPSRFKCSGSGTRFTLTISGVQCEDAATYYCAGYKTADSDGLGFGGGTEVEIK
notes: Rabbit variable domains
